Molecular target: HLA-A*02:01
Assay: IEDB peptide-MHC binding, purified MHC/competitive/fluorescence; filed as Kd, often an IC50 or EC50 that approximates it; ≥ and ≤ were set here for values at or beyond the usual limits of such assays
Settings: source organism: Coxiella burnetii

Row | Sequence | Kd [µM]
1 | FLFFYSGLIL | ≥ 5
2 | FLIAVFARHL | ≥ 5
3 | IMIDRLIEQL | ≥ 5
4 | LLWHGVSTL | ≥ 5
5 | MLWLPLLLIL | ≥ 5
6 | NMFQHLPYL | ≥ 5
7 | RMYISFFPL | ≥ 5
8 | VIDDLIVYRV | ≥ 50
9 | YLLDRCPFL | ≥ 5
10 | YLVNHPEVL | ≥ 50

Molecular target: HLA-B*44:02
Assay: as above
Settings: source organism: Coxiella burnetii

Row | Sequence | Kd [µM]
11 | EEFVKTQSY | ≥ 5
12 | FEALHLLYAL | ≥ 1000
13 | GEEATAFLRY | ≥ 50
14 | IERVFYYFPL | ≥ 1000
15 | IEVVKKYMDY | ≥ 1000
16 | KDIQSIVHHY | ≥ 1000
17 | METPPQSPDF | ≥ 1000
18 | MEVRDLLNSY | ≥ 5
19 | NEIETATRY | ≥ 5
20 | REMYSRRRMY | ≥ 5

Molecular target: HLA-A*03:01
Assay: as above
Settings: source organism: Coxiella burnetii

Row | Sequence | Kd [µM]
21 | ASFQNYLNDY | ≥ 1000
22 | ATSNLIYKLK | ≥ 5
23 | GVDRFITYK | ≥ 5
24 | ISYDRFTVGK | ≥ 5
25 | KLILFVYRY | ≥ 50
26 | KTFVYPMGLY | ≥ 5
27 | LLSTLCLYRK | ≥ 50
28 | LSATFITSK | ≥ 5
29 | SLFANMNGHY | ≥ 50
30 | VLDCNYLSK | ≥ 5

Molecular target: HLA-A*24:02
Assay: as above
Settings: source organism: Coxiella burnetii

Row | Sequence | Kd [µM]
31 | GYHSITPYLF | ≥ 5
32 | IYDDRLLFEF | ≥ 5
33 | LYDDEFKFL | ≥ 5
34 | NFSDYIWHF | ≥ 5
35 | QYLQYLWPL | ≥ 5
36 | SFVPKFFLTF | ≥ 5
37 | TYRHNKKLL | ≥ 50
38 | TYRVLNYKDL | ≥ 50
39 | WYVVNNNYL | ≥ 5

Molecular target: HLA-B*07:02
Assay: as above
Settings: source organism: Coxiella burnetii

Row | Sequence | Kd [µM]
40 | KPLQVINRKY | ≥ 1000
41 | LPQKPWWKF | ≥ 1000
42 | LPRNRYRLVF | ≥ 5
43 | LPRRHNFYNY | ≥ 1000
44 | SPHPRVNQF | ≥ 5
45 | TPDFPQLFF | ≥ 50
46 | TPTFVIGNKA | ≥ 1000

Molecular target: HLA-A*01:01
Assay: as above
Settings: source organism: Coxiella burnetii

Row | Sequence | Kd [µM]
47 | ETYNSINKY | ≥ 1000
48 | FFEDFTHRY | ≥ 1000
49 | HTYYLIGFLY | ≥ 50
50 | KTEQDKLSY | ≥ 50
51 | LTLLLNWVNY | ≥ 50
52 | MVEEKYNYFY | ≥ 5
53 | QSGWTIHHY | ≥ 1000
54 | SLESGFTYY | ≥ 5
55 | VSDATVAKWY | ≥ 50
56 | VTLVEFFDY | ≥ 1000
